Test results taken from US20230159610A1 (BIOTEST, published 2023).
Where a chain is given by its changes, count along the chain named.

B1: FcTregV32 (other)
chain: DKTHTCPPCPAPELLGGPSVFLFPPKPKDTLMISRTPEVTCVVVDVSHEDPEVKFNWYVDGVEVHNAKTKPREEQYGGLVQPGGSLRLSCAASGFTFEYKCKVSNKALPAPIEKTISKAKGTDFTLTISSLQPEDRDELTKNQVSLTCLVKGFYPSDIAVEWESNGQPENNYKTTGGLVQPGGSLRLSCAASGFTFRWQQGNVFSCSVMHEALHNHYTQKSLSLSPGKKTLYLQMNSLRAEDTAKH
notes: TCP on the human IgG1 Fc-part: Treg009A in frame A, Treg084 in frame C, Treg009A in frame B, Treg088x C-terminal; also called Construct V32
B2: FcTregV34 (other)
chain: DKTHTCPPCPAPELLGGPSVFLFPPKPKDTLMISRTPEVTCVVVDVSHEDPEVKFNWYVDGVEVHNAKTKPREEQYNSTYRVVSVLTVLHQDWLNGKEYKCKVSNKALPAPIEKTISKAKGQPREPQVYTLPPSRDELTKNQVSLTCLVKGFYPSDIAVEWESNGQPENNYKTTPPEEQYQSTYRVVSVLTVLHQDWQQGNVFSCSVMHEALHNHYTQKSLSLSPGKKTLYLQMNSLRAEDTAKH
notes: TCP on the human IgG1 Fc-part: Treg289 in frame B, Treg088x C-terminal; also called Construct V34
B3: FcTregV20 (other)
chain: DKTHTCPPCPAPELLGGPSVFLFPPKPKDTLMISRTPEVTCVVVDVSHEDPEVKFNWYVDGVEVHNAKTKPREEQYNSTYRVVSVLTVLHQDWLNGKEYKCKVSNKALPAPIEKTISKAGGLVQPGGSLRLSCAASGFTFNQVSLTCLVKGFYPSDIAVEWESNGQPENNYKTTPPVLDSDGSKTLYLQMNSLRAEDTAKHVFSCSVMHEALHNHYTQKSLSLSPGK
notes: also called Construct V20
B4: FcTregV1 (other)
chain: DKTHTCPPCPAPELLGGPSVFLFPPKPKDTLMISRTPEVTCVVVDVSHEDPEVKFNWYVDGVEVHNAKTKPREEQYQSTYRVVSVLTVLHQDWLNGKEYKCKVSNKALPAPIEKTISKAKGTDFTLTISSLQPEDDELTKNQVSLTCLVKGFYPSDIAVEWESNGQPENNYKTTPPVLDSDGSFFLYSKLTVDKSRWQQGNVFSCSVMHEALHNHYTQKSLSLSPGKLNNFYPREAKVQWKVDNALQSGNS
notes: Tregitope carrying polypeptide (TCP) built on the human IgG1 Fc-part: Treg289 in frame A, Treg084 in frame C, Treg134 C-terminal; also called Construct V1
B5: FcTregV14 (other)
chain: B4 chain with Q77N
notes: TCP on the human IgG1 Fc-part: Treg084 in frame C, Treg134 C-terminal; also called Construct V14
B6: FcTregV13 (other)
chain: DKTHTCPPCPAPELLGGPSVFLFPPKPKDTLMISRTPEVTCVVVDVSHEDPEVKFNWYVDGVEVHNAKTKPREEQYQSTYRVVSVLTVLHQDWLNGKEYKCKVSNKALPAPIEKTISKAKGTDFTLTISSLQPEDDELTKNQVSLTCLVKGFYPSDIAVEWESNGQPENNYKTTPPVLDSDGSFFLYSKLTVDKSRWQQGNVFSCSVMHEALHNHYTQKSLSLSPGKKTLYLQMNSLRAEDTAKH
notes: TCP on the human IgG1 Fc-part: Treg289 in frame A, Treg084 in frame C, Treg088x C-terminal; also called Construct V13
B7: FcTregV23 (other)
chain: DKTHTCPPCPAPELLGGPSVFLFPPKPKDTLMISRTPEVTCVVVDVSHEDPEVKFNWYVDGVEVHNAKTKPREEQYNSTYRVGTDFTLTISSLQPEDEYKCKVSNKALPAPIEKTISKAKGQPREPQVYTLPPSRDELTKNQVSLTCLVKGFYPSDIAVEWESNGQPENNYKTTPPVLDSDGSFFLYSKLTVDKSRWQQGNVFSCSVMHEALHNHYTQKSLSLSPGK
notes: Human IgG1 Fc-part with Treg084 in frame A; also called Construct V23

Target: the molecule itself
Test: dimer formation of the expressed construct (self-association), Western blot of transfected cells

Protein	binding result
B1	binds
B2	binds
B3	binds
B4	binds
B5	binds
B6	binds
B7	binds
